Laboratory results from article PMC7181697.

Tests used:
REV7^K129A (human) = REV7^K129A (human) (UniProt Q9UI95); experiment: ITC; in the context of MBP-SHLD2(1-60) (Supplementary Fig. 5a, b)
MBP-SHLD2(1–60) (human) = MBP-SHLD2(1–60) (human) (UniProt Q86V20); experiment: ITC; ITC200, 25 °C, 20 mM Tris pH 8.0, 150 mM NaCl, 1% glycerol, 1 mM TCEP; one set of sites model
Sequence of MBP-SHLD2(1–60) (human) (Q86V20 1-60): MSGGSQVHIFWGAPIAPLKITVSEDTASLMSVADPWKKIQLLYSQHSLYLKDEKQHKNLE

Sequence of REV7^K129A (human) (Q9UI95 whole entry K129A): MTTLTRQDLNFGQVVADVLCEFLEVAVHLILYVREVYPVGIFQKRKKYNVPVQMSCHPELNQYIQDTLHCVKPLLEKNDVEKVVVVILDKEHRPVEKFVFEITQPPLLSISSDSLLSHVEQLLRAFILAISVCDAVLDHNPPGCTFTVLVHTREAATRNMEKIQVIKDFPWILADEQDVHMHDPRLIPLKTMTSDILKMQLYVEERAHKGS

| Kd (REV7^K129A (human)) [nM] | Kd (MBP-SHLD2(1–60) (human)) [nM] | Substance |
| --- | --- | --- |
| 410 |  | REV7^K129A-SHLD3(1–82) (from UniProt Q9UI95 1-211; Q6ZNX1 1-82) (complex) |
|  | 59 | REV7^W171A-SHLD3(1–82) (from UniProt Q9UI95 1-211; Q6ZNX1 1-82) (complex) |
|  | 600 | REV7^Y63A-SHLD3(1–82) (from UniProt Q9UI95 1-211; Q6ZNX1 1-82) (complex) |
